Where two headings read alike, the source gives them in different places.

In test [1] the target is F-actin prepared from rabbit skeletal muscle (rabbit) (UniProt P68135). Briefly: co-sedimentation.
The target is the same in test [2]. Briefly: co-sedimentation. The source holds these as a separate data set.
Test [3] has as its target rhodamine-phalloidin-labeled, 10% biotinylated filamentous actin (UniProt P68135). The test is described as follows: optical trapping.

Turning to “Drosophila myosin-18 M-PDZ (minimal motor domain construct with the N-terminal PDZ domain) (domain or fragment)”, the equilibrium dissociation constant (Kd) (commonly the free concentration of one partner at which half of the binding sites on the other are occupied at equilibrium, for simple one-to-one binding) turned out to be 2600 nM in test [1] and 1500 nM in test [2]. This substance gave a fraction bound in the first sedimentation at 20 μM actin in test [1] of 54.9%. Moreover, the off-rate (koff) (usually a measure of how fast the partners let go of each other) in test [3] was 94.2 s⁻¹.
As to “Drosophila myosin-18 M-ΔPDZ (minimal motor domain construct without the PDZ domain) (domain or fragment)”, the Kd in test [1] and in test [2] was 1000 nM each time. In addition, the koff in test [3] amounted to 57 s⁻¹.

These data come from paper PMC3122231.
